Laboratory results reported in IntAct's records for PubMed 22307274.

B1: Histone chaperone RTT106 (Saccharomyces cerevisiae), P40161 (parent)
chain: MSKLFLDELPESLSRKIGTVVRVLPSSLEIFEELYKYALNENSNDRSGRHKKPRIDVSSDLLKTDEISETNTIFKLEGVSVLSPLRKKLDLVFYLSNVDGSPVITLLKGNDRELSIYQLNKNIKMASFLPVPEKPNLIYLFMTYTSCEDNKFSEPVVMTLNKENTLNQFKNLGLLDSNVTDFEKCVEYIRKQAILTGFKISNPFVNSTLVDTDAEKINSFHLQCHRGTKEGTLYFLPDHIIFGFKKPILLFDASDIESITYSSITRLTFNASLVTKDGEKYEFSMIDQTEYAKIDDYVKRKQMKDKSMSEELKAKSKSKGQATDGTADQPSILQEATRQMQDEKKAGVFSDDDEENDQNFEAESDLSDGSGQESSDGAEDGEEAEEDDEEDDEEEDKKGQSALNRDNSFASINGQPEQELQYKEFKEPLELEDIPIEIDNDDDEDDEDGSGVEYD

Variants of: B1
Conditions: with h3_yeast HHT1, P61830

Row | Variant | effect of a mutation on the interaction
1 | D295A | disrupting interaction strength
2 | Y297A | disrupting interaction strength
3 | I259A | disrupting interaction strength

Variants of: B1
Conditions: with h3_yeast HHT1, P61830
Remark: another data set of the same source

Row | Variant | effect of a mutation on the interaction
4 | Q288A | decreasing interaction strength
5 | I294A | disrupting interaction strength
6 | F269A | disrupting interaction strength
7 | Y291A | disrupting interaction strength
8 | Y261A | disrupting interaction strength
9 | I259A | decreasing interaction strength
